From the supplement of paper PMC5998384

Key:
HeLa Kyoto [1] = assay: solubility in G1/S (NP-40 vs SDS abundance) (log2 ratio); higher = more soluble; details: cell cycle stage: G1/S
HeLa Kyoto [2] = assay: solubility change mitosis vs G1/S (difference of NP-40 vs SDS log2 ratios) (log2 ratio difference); higher = more soluble in mitosis
HeLa Kyoto [3] = assay: thermal stability score vs G1/S (z-score of summed log2 fold changes over temperatures); higher = more thermally stable than in G1/S
[4] = cell cycle stage: early G1 (4.5 h after nocodazole release)
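For solubility change mitosis vs G1/S (difference of NP-40 vs SDS log2 ratios) in this document: synchronized HeLa Kyoto cells (double thymidine block for G1/S, nocodazole release for mitosis), protein amounts in NP-40 versus SDS lysates quantified by mass spectrometry, three biological replicates.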
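For solubility in G1/S (NP-40 vs SDS abundance) in this document: HeLa Kyoto cells arrested at G1/S by double thymidine block, proteins quantified by TMT10plex mass spectrometry in mild NP-40 versus SDS extracts, three biological replicates.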
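For thermal stability score vs G1/S (z-score of summed log2 fold changes over temperatures) in this document: synchronized HeLa Kyoto cells, proteins quantified by TMT10plex mass spectrometry, three biological replicates, mitosis taken 0.5 h after nocodazole release, G1/S directly after double thymidine block.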

Sequence	solubility in G1/S (log2) (HeLa Kyoto [1])	solubility change mitosis (log2) (HeLa Kyoto [2])	thermal stability score (HeLa Kyoto [3]; [4])	thermal stability score (HeLa Kyoto [3]; cell cycle stage: mitosis)
MPEEAGFPPAKRFRPGSGPPSRAGSFPPGRQVVMLLTAGSGGRGGGGGRRQQPPLAQPSASPYPEAVELQRRSLPIFQARGQLLAQLRNLDNAVLIGETGSGKTTQIPQYLYEGGISRQGIIAVTQPRRVAAISLATRVSDEKRTELGKLVGYTVRFDDVTSEDTRIKFLTDGMLLREAISDSLLRKYSCVILDEAHERTIHTDVLFGVVKAAQKRRKELGKLPLKVIVMSATMDVDLFSQYFNGAPVLYLEGRQHPIQVFYTKQPQNDYLHAALVSVFQIHQEAPSSQDILVFLTGQEEIEAMSKTCRDIAKHLPDGCPAMLVLPLYASLPYAQQLRVFQGAPKGYRKVIISTNIAETSITITGIKYVVDTGMVKAKKYNPDSGLEVLAVQRVSKTQAWQRTGRAGREDSGICYRLYTEDEFEKFDKMTVPEIQRCNLASVMLQLLAMKVPNVLTFDFMSKPSPDHIQAAIAQLDLLGALEHKDDQLTLTPMGRKMAAFPLEPKFAKTILMSPKFHCTEEILTIVSLLSVDSVLHNPPSRREEVQGVRKKFISSEGDHMTLLNIYRTFKNLGGNKDWCKENFVNSKNMTLVAEVRAQLRDICLKMSMPIASSRGDVESVRRCLAHSLFMSTAELQPDGTYATTDTHQPVAIHPSSVLFHCKPACVVYTELLYTNKCYMRDLCVIDAQWLYEAAPEYFRRKLRTARN [DHX33]	-1.03	0.463	0.61	0.974
MPGPQGGRGAATMSLGKLSPVGWVSSSQGKRRLTADMISHPLGDFRHTMHVGRGGDVFGDTSFLSNHGGSSGSTHRSPRSFLAKKLQLVRRVGAPPRRMASPPAPSPAPPAISPIIKNAISLPQLNQAAYDSLVVGKLSFDSSPTSSTDGHSSYGLDSGFCTISRLPRSEKPHDRDRDGSFPSEPGLRRSDSLLSFRLDLDLGPSLLSELLGVMSLPEAPAAETPAPAANPPAPTANPTGPAANPPATTANPPAPAANPSAPAATPTGPAANPPAPAASSTPHGHCPNGVTAGLGPVAEVKSSPVGGGPRGPAGPALGRHWGAGWDGGHHYPEMDARQERVEVLPQARASWESLDEEWRAPQAGSRTPVPSTVQANTFEFADAEEDDEVKV [CDC42EP1]	0.536	0.0734	-0.817	-1.35
MPLVVFCGLPYSGKSRRAEELRVALAAEGRAVYVVDDAAVLGAEDPAVYGDSAREKALRGALRASVERRLSRHDVVILDSLNYIKGFRYELYCLARAARTPLCLVYCVRPGGPIAGPQVAGANENPGRNVSVSWRPRAEEDGRAQAAGSSVLRELHTADSVVNGSAQADVPKELEREESGAAESPALVTPDSEKSAKHGSGAFYSPELLEALTLRFEAPDSRNRWDRPLFTLVGLEEPLPLAGIRSALFENRAPPPHQSTQSQPLASGSFLHQLDQVTSQVLAGLMEAQKSAVPGDLLTLPGTTEHLRFTRPLTMAELSRLRRQFISYTKMHPNNENLPQLANMFLQYLSQSLH [KTI12]	0.526	-0.00671	-1.22	-1.26
MPTNFTVVPVEAHADGGGDETAERTEAPGTPEGPEPERPSPGDGNPRENSPFLNNVEVEQESFFEGKNMALFEEEMDSNPMVSSLLNKLANYTNLSQGVVEHEEDEESRRREAKAPRMGTFIGVYLPCLQNILGVILFLRLTWIVGVAGVLESFLIVAMCCTCTMLTAISMSAIATNGVVPAGGSYYMISRSLGPEFGGAVGLCFYLGTTFAGAMYILGTIEIFLTYISPGAAIFQAEAAGGEAAAMLHNMRVYGTCTLVLMALVVFVGVKYVNKLALVFLACVVLSILAIYAGVIKSAFDPPDIPVCLLGNRTLSRRSFDACVKAYGIHNNSATSALWGLFCNGSQPSAACDEYFIQNNVTEIQGIPGAASGVFLENLWSTYAHAGAFVEKKGVPSVPVAEESRASALPYVLTDIAASFTLLVGIYFPSVTGIMAGSNRSGDLKDAQKSIPTGTILAIVTTSFIYLSCIVLFGACIEGVVLRDKFGEALQGNLVIGMLAWPSPWVIVIGSFFSTCGAGLQSLTGAPRLLQAIARDGIVPFLQVFGHGKANGEPTWALLLTVLICETGILIASLDSVAPILSMFFLMCYLFVNLACAVQTLLRTPNWRPRFKFYHWTLSFLGMSLCLALMFICSWYYALSAMLIAGCIYKYIEYRGAEKEWGDGIRGLSLNAARYALLRVEHGPPHTKNWRPQVLVMLNLDAEQAVKHPRLLSFTSQLKAGKGLTIVGSVLEGTYLDKHMEAQRAEENIRSLMSTEKTKGFCQLVVSSSLRDGMSHLIQSAGLGGLKHNTVLMAWPASWKQEDNPFSWKNFVDTVRDTTAAHQALLVAKNVDSFPQNQERFGGGHIDVWWIVHDGGMLMLLPFLLRQHKVWRKCRMRIFTVAQVDDNSIQMKKDLQMFLYHLRISAEVEVVEMVENDISAFTYERTLMMEQRSQMLKQMQLSKNEQEREAQLIHDRNTASHTAAAARTQAPPTPDKVQMTWTREKLIAEKYRSRDTSLSGFKDLFSMKPDQSNVRRMHTAVKLNGVVLNKSQDAQLVLLNMPGPPKNRQGDENYMEFLEVLTEGLNRVLLVRGGGREVITIYS [SLC12A7]	-0.103	-0.0793	0.109	0.0218
